# The RNAGym collection of RNA variant scans (doi:10.1021/acssynbio.7b00057)
# B1: Pistol ribozyme (parent)
# chain: GGGUCGUUGUUCCAUAAUCGCGUGGAUAUGGCACGCAAGUUUCUACCGGGCACCGUAAAUGUCCGACUGGAGCCGUUCGGGCGGCUAUAAACAGACCUCAGGCCCGAAGCGUGGCGGCACCUGCCGCCGGUGGUAAAAAAGAUCGGAAGAGCACACGUCU
# Variants of: B1
# Experiment: aptazyme ON/OFF ratio, guanine; higher = stronger switching; co-transcriptional cleavage with and without guanine
row,Variant,aptazyme ON/OFF ratio
1,U7G U10G U11C C12G C13A,1.14
2,G9A U10C C12G C13U,1.31
3,U7A U8A U10A U11A C12A C13G,1.19
4,U8C U10A U11A C12A,1.17
5,U10G U11A C12G C13A,1.16
6,U7A U8C U11A C12G C13U,1.15
7,U7C U8C U10A C12A C13A,1.05
8,U7C G9A C12G C13A,1.18
9,U7A U8C G9U U10G U11A C13G,1.08
10,U7G G9C U10C U11G,1.18
11,U8G G9U U11C C12A C13U,1.11
12,U7A U8G U10G U11C C12A C13A,1.39
13,U7G U8A G9U U10C U11G C13A,1.1
14,U7G U8G G9U U10C U11C C12A C13G,1.3
15,U7G G9A U10C C12A C13G,1.13
16,U7C U8G G9C U10A U11C C12G C13G,1.24
17,U8C U10C U11A C12A C13G,1.14
18,U7A U8C G9U U10C U11G C12U,1.17
19,U8A G9A U10G U11G C12A,1.09
20,G9U U11A,1.24
21,U7C U8C G9A U11C C13G,1.05
22,U7G U8A U10A U11A C12A C13A,1.21
23,U8A U10G U11G C12A C13A,1.18
24,U7A U8G U10C U11G C12G C13A,1.19

row,Variant,aptazyme ON/OFF ratio
1,U7G U8G G9U U11A C12U C13A,1.33
2,U7C U8G U10G U11G C12A,1.28
3,U7G U8C G9A U10C U11G C13G,1.27
4,U7C U8G G9C U10C U11C C13A,1.03
5,U8A G9A U10C C13U,1.11
6,U7A U8A G9A U10G U11A C12U C13U,1.1
7,U7G U8C U10G U11C C12A C13U,1.33
8,U7A U10C U11G C12G C13U,1.18
9,U7C U8G G9C U10G C12G,1.16
10,U7A G9C U10C U11A C12U C13A,1.04
11,U7A U8C G9U U10G U11G C13A,1.18
12,U7C U11A C12G C13U,1.07
13,U7C U11A C12G C13G,1.16
14,U7G U8G U10G C12G C13A,1.21
15,U7C U8A U10G C12U C13A,1.34
16,U7C U10C U11C C12G C13U,1.24
17,U7A U8C G9A U10G U11A C13A,1.04
18,U7G U8C G9U,4.98
19,U7A U11A C12U,1.26
20,U7C U8C U11C C12U C13G,1.2
21,U7G U8C G9U U10C U11C C12A C13A,1.52
22,U7C U8A G9C U10A U11C C12G C13A,1.29
23,U7A U8C G9C U10G U11A C13A,1.05
24,U7G U8A G9C U11C C12U C13G,1.08

row,Variant,aptazyme ON/OFF ratio
1,U7C U8C G9U U10C U11A C12G C13U,1.09
2,U8C G9U U10A U11C C12G C13G,1.28
3,U7A U8G G9C U11C,1.35
4,U8A G9C U11A C12G,1.22
5,U7C U8A G9U U10G U11A C13U,1.03
6,U7G U8G G9A U10C U11G,1.89
7,U8A U10C U11A C12U C13G,1.23
8,U8C G9U U11A C12A,1.37
9,U7G U8C G9A U10C C12A,1.18
10,U7G U8G U10G U11A C12A C13A,1.17
11,U7A U8G G9C U10G U11C,1.04
12,U7G U10C U11G,1.22
13,U7A U8A G9C U10G U11C C12U C13G,1.19
14,U7C U8G G9U U10G C12A C13G,1.09
15,U8A G9U U10G U11C C12U C13U,1.08
16,U7G U8G G9U U11G C12G C13G,1.14
17,U8C G9A U11G C12G C13U,1.11
18,U8C G9U U10A C12G C13A,1.27
19,G9C U10C U11A C12U C13U,1.06
20,U7G G9C C13G,1.14
21,U7A U8C G9U U10G U11A C12A C13G,1.13
22,U7A U10A U11C,1
23,U7A U8G G9U U10C C12U C13A,1.34
24,U7A U8A G9C U10A U11A C12U C13U,1.13

row,Variant,aptazyme ON/OFF ratio
1,G9U U10G U11C C12G C13U,1.27
2,U7A U8G U10A U11C C12G,1.15
3,U7A U8C U11G C12U C13G,1.06
4,U7A U8G G9A U10G U11A C12U C13U,1.27
5,U7C U8G G9A U10G U11G C12A C13U,1.12
6,U8G G9A U10A U11C C13U,1.01
7,U8G U10C U11C C12A C13G,1.11
8,U7G G9C U10A C12U C13U,1.07
9,U7G U8C G9C U10G U11G C12G C13U,1.09
10,U7A U8C U10C,2.24
11,U7C G9U U10A U11C C12U C13G,1.03
12,U7C U8A G9U U10G U11G C12G C13A,1.21
13,U8G G9A U10G C12A C13A,1.29
14,U7A G9A U10G U11C C12G,1.08
15,U8A G9A C12U C13G,1.17
16,U8C G9C U10G U11G C13U,1.07
17,U11C C12U,1.57
18,U7G U8G G9C U10A U11A C12U C13U,1.02
19,U7C U8C G9C U10A U11C C12A C13A,1.09
20,U7G U8A G9A U11A C12U,1.25
21,U8G G9C U11G C12G C13G,1.07
22,U7C U8G G9U U10C U11A C12G C13A,1.14
23,U8A G9C C12U C13A,1.21
24,U7A G9A U10G U11G C12A C13A,1.2

row,Variant,aptazyme ON/OFF ratio
1,U7A U8G G9U U10A U11A C13U,1.39
2,U8G G9U U10C U11G C12A C13G,1.11
3,U7G G9C U11C C12A C13U,1.5
4,U7C G9C U10A U11C C12A,1.07
5,U7G U8A G9C U11G C12U C13U,1.19
6,U7A U10C U11A C12G C13U,1.29
7,U7G U8A U10G U11G C12U C13U,1.65
8,U8A G9C U10G C13G,1.17
9,U7G U8G G9A U10G U11G C13A,1.13
10,G9U U10C C12G C13U,1.18
11,U7A U8C G9U U11C C12G C13G,1.05
12,G9C U10G C12U C13G,1.15
13,U7A U8A G9U U10G U11A C13A,1.02
14,U7A U10C C12A,1.37
15,U7G G9U U10C C12G C13G,1.22
16,U7A G9A U10C U11C C12G,1.09
17,U7C U8G U10A U11A C12U C13A,1.16
18,U7A G9A U10C C12G C13U,1.2
19,U7A U8A G9C U10C C13U,1.12
20,U7G U8C U11A C13G,1.03
21,G9A U11G C12G C13A,1.18
22,U7G U8C G9C U10C C12A C13A,1.08
23,U7A G9U U10A U11C,1.02
24,U7A U8G G9U U10A U11G C13A,1.14

row,Variant,aptazyme ON/OFF ratio
1,U7G G9U U10A U11G C12A C13G,1.11
2,U8G G9C U10G U11C C12G C13U,1.08
3,U7G G9A U10A U11A C13A,1.14
4,U7G G9A C12G C13A,1.13
5,G9C U10A U11G C12G,1.23
6,U7C U8G G9C U10G C13A,1.25
7,U7G U8G G9C U10G U11G C12G C13A,1.06
8,U7G U10C U11A C12U C13U,1.1
9,G9A U10C U11C,1.06
10,U7A G9A U11G C12G C13U,1.42
11,U7A U8C G9C U10G C12G,1.12
12,U7A U8A G9A U10G U11A C13A,1.01
13,U7C U8A G9A U10G U11C C12A C13U,1.18
14,U7C U8A U10A U11C C13A,1.03
15,U7C U8G G9C U10C U11C C12A C13G,1.04
16,U8C G9A U10G U11C C12A C13U,1.22
17,U7G U8G G9C U10G U11A C13U,1.12
18,G9C U10G U11C C12U C13A,1.2
19,U7C U8A G9C U10C U11C C12U C13A,1.03
20,U8G G9U C12G C13A,1.3
21,U8C G9A U10A U11C C12G C13A,1.21
22,U8C G9A U10A U11C C12G C13U,1.3
23,U8G U10G U11A C12A C13U,1.3
24,U7G U8C G9A U10G U11A C12U C13A,1.09

row,Variant,aptazyme ON/OFF ratio
1,U7C U8G U10C U11C,3.48
2,U7C U8A G9A U10C U11A C12G C13U,1.18
3,U8C G9U U10A U11A,2.18
4,U7C G9U U11A C12G C13U,1.14
5,U7G U8C G9U U10G U11G C13G,1.17
6,U7C G9U U10C U11C C13G,1.06
7,U7A U8A C12U C13G,1.24
8,U7C U8G G9A U10A U11A C13G,1.07
9,U7G G9U U10C U11C C12U C13A,1.25
10,U7C U10A U11G C12U C13U,1.5
11,U8A U11A C12U C13A,1.23
12,U7A G9U U11C C12U C13A,1.2
13,U7G U8G G9U U10G C13U,1.36
14,U7A U10G U11C C12G C13A,1.13
15,U7A U8C G9A U10A U11A,1.19
16,U7C U8C U10A U11C C12U C13A,1.08
17,U8G G9A U10A C13U,1.22
18,U7C U8G G9U U10C U11A C12U C13G,1.27
19,U7G U8C G9A U10C U11C C12A,1.16
20,U7A U8G G9A U10G U11A C12G C13G,1.11
21,U7A U8A G9C U10A U11A C13G,1.09
22,U7G U8G U11C C12A C13G,1.15
23,U8A G9A U10G U11C C12U C13A,1.21
